Reference: the Immune Epitope Database (IEDB)
Each block holds one sequence with its values, some of them ahead of it.

Key:
HLA-A*24:02 [1] = experiment: IEDB peptide-MHC binding, purified MHC/competitive/radioactivity; filed as Kd, often an IC50 or EC50 that approximates it; ≥ and ≤ were set here for values at or beyond the usual limits of such assays
HLA-A*23:01 = experiment: as above
HLA-A*26:01 = experiment: as above
HLA-A*29:02 = experiment: as above
HLA-A*01:01 [2] = experiment: as above
HLA-A*30:02 = experiment: as above
HLA-B*40:01 = experiment: IEDB peptide-MHC binding, purified MHC/direct/fluorescence; filed as Kd, often an IC50 or EC50 that approximates it; ≥ and ≤ were set here for values at or beyond the usual limits of such assays
HLA-A*30:01 = experiment: IEDB peptide-MHC binding, purified MHC/competitive/radioactivity; filed as Kd, often an IC50 or EC50 that approximates it; ≥ and ≤ were set here for values at or beyond the usual limits of such assays
HLA-A*03:01 = experiment: as above; settings: source organism: Dengue virus 2 Jamaica/1409/1983
HLA-A*11:01 [3] = experiment: IEDB peptide-MHC binding, purified MHC/direct/fluorescence; filed as Kd, often an IC50 or EC50 that approximates it; ≥ and ≤ were set here for values at or beyond the usual limits of such assays; settings: source organism: Yellow fever virus
HLA-A*11:01 [4] = experiment: IEDB peptide-MHC binding, purified MHC/competitive/radioactivity; filed as Kd, often an IC50 or EC50 that approximates it; ≥ and ≤ were set here for values at or beyond the usual limits of such assays; settings: source organism: Dengue virus 2 Jamaica/1409/1983
HLA-B*44:02 = experiment: as above; settings: source organism: Dengue virus 2 Jamaica/1409/1983
HLA-A*24:02 [5] = experiment: IEDB peptide-MHC binding, purified MHC/competitive/fluorescence; ≥ and ≤ were set here for values at or beyond the usual limits of such assays
HLA-A*02:01 = experiment: as above
HLA-B*57:01 = experiment: IEDB peptide-MHC binding, purified MHC/direct/fluorescence; filed as Kd, often an IC50 or EC50 that approximates it; ≥ and ≤ were set here for values at or beyond the usual limits of such assays; settings: source organism: Burkholderia mallei
HLA-B*58:01 = experiment: as above; settings: source organism: Burkholderia mallei
HLA-A*01:01 [6] = experiment: as above; settings: source organism: Salmonella enterica subsp. enterica serovar Typhimurium
[7] = source organism: SARS coronavirus Tor2
[8] = source organism: Vaccinia virus WR
[9] = source organism: Dengue virus 3 Martinique/1243/1999
[10] = source organism: Dengue virus 2 Jamaica/1409/1983
[11] = source organism: Dengue virus 4 Philippines/H241/1956
[12] = source organism: Dengue virus 1 Brazil/97-11/1997
[13] = source organism: Lassa virus GA391
[14] = source organism: Sudan ebolavirus
[15] = source organism: Zaire ebolavirus

Sequence: KTIVESCGNY
- Kd (HLA-A*24:02 [1]; [7]): ≥ 70300 nM
- Kd (HLA-A*23:01; [7]): ≥ 70 µM
- Kd (HLA-A*26:01; [7]): 1350 nM
- Kd (HLA-A*29:02; [7]): 844 nM
- Kd (HLA-A*01:01 [2]; [7]): 240 nM
- Kd (HLA-A*30:02; [7]): 1.69 nM

Sequence: LEVPAMGVL
- Kd (HLA-B*40:01; source organism: Mycobacterium tuberculosis): 25 nM

Sequence: RLKDYQHFV
- Kd (HLA-A*30:01; [8]): 0.394 nM

Sequence: VTTWENVPY
- Kd (HLA-A*01:01 [2]; [9]): 590 nM
- Kd (HLA-A*30:02; [9]): 10.9 nM

Sequence: AGVLWDVPSP
- Kd (HLA-A*30:01; [10]): 11900 nM

Sequence: YTTTIKPVSY
- Kd (HLA-A*24:02 [1]; [7]): ≥ 70300 nM
- Kd (HLA-A*23:01; [7]): ≥ 70 µM
- Kd (HLA-A*26:01; [7]): 878 nM
- Kd (HLA-A*29:02; [7]): 31.6 nM
- Kd (HLA-A*01:01 [2]; [7]): 41.6 nM
- Kd (HLA-A*30:02; [7]): 1020 nM

Sequence: YYMATLKNVT
- Kd (HLA-A*24:02 [1]; [11]): 1540 nM

Sequence: RVFNEYGFV
- Kd (HLA-A*30:01; [8]): 142 nM

Sequence: IDATSTGNY
- Kd (HLA-A*24:02 [1]; [7]): ≥ 73800 nM
- Kd (HLA-A*23:01; [7]): ≥ 77.8 µM
- Kd (HLA-A*26:01; [7]): 1050 nM
- Kd (HLA-A*29:02; [7]): 447 nM
- Kd (HLA-A*01:01 [2]; [7]): 3720 nM
- Kd (HLA-A*30:02; [7]): 8590 nM

- Kd (HLA-A*01:01 [2]; source organism: Homo sapiens): 1.8 nM
Sequence: YTDFPCQYV

Sequence: RTLAKEGIK
- Kd (HLA-A*30:01; [10]): 217 nM
- Kd (HLA-A*03:01): 30 nM

Sequence: SYTQMCDHRL
- Kd (HLA-A*24:02 [1]; [12]): 184 nM

Sequence: LTLKGTSYK
- Kd (HLA-A*11:01 [3]): 5.6 nM

Sequence: EGNETPGGY
- Kd (HLA-A*24:02 [1]; [13]): 1210 nM
- Kd (HLA-A*23:01; [13]): 0.174 µM
- Kd (HLA-A*26:01; [13]): ≥ 77900 nM
- Kd (HLA-A*29:02; [13]): 18600 nM
- Kd (HLA-A*01:01 [2]; [13]): ≥ 20900 nM
- Kd (HLA-A*30:02; [13]): ≥ 76900 nM

Sequence: FEKEGYSLV
- Kd (HLA-B*40:01; source organism: Influenza A virus (A/Netherlands/458/98 (H3N2))): 118 nM

Sequence: WFFDLPLPW
- Kd (HLA-A*24:02 [1]; [9]): 62.2 nM
- Kd (HLA-A*23:01; [9]): 0.024 µM

Sequence: VSSWEEVPY
- Kd (HLA-A*01:01 [2]; [12]): 269 nM
- Kd (HLA-A*30:02; [12]): 1860 nM

Sequence: LTSRATWAK
- Kd (HLA-A*11:01 [4]): 44.8 nM
- Kd (HLA-A*30:01; [10]): 176 nM
- Kd (HLA-A*03:01): 58.6 nM

Sequence: HTAITQVRNL
- Kd (HLA-A*26:01; [11]): 2270 nM

Sequence: KVKKLNRCA
- Kd (HLA-A*30:01; [8]): 3.12 nM

Sequence: AICSAVPSHW
- Kd (HLA-B*44:02): 181 nM

Sequence: DYMTSMKRF
- Kd (HLA-A*24:02 [1]; [12]): 214 nM
- Kd (HLA-A*23:01; [12]): 0.791 µM

Sequence: AMGKPVPYCY
- Kd (HLA-A*24:02 [1]; [7]): ≥ 70300 nM
- Kd (HLA-A*23:01; [7]): ≥ 70 µM
- Kd (HLA-A*26:01; [7]): ≥ 49400 nM
- Kd (HLA-A*29:02; [7]): 89.5 nM
- Kd (HLA-A*01:01 [2]; [7]): 1990 nM
- Kd (HLA-A*30:02; [7]): 1.1 nM

Sequence: FTSCELYHY
- Kd (HLA-A*24:02 [1]; [7]): ≥ 35800 nM
- Kd (HLA-A*23:01; [7]): ≥ 38.1 µM
- Kd (HLA-A*26:01; [7]): 811 nM
- Kd (HLA-A*29:02; [7]): 3.57 nM
- Kd (HLA-A*01:01 [2]; [7]): 1.73 nM
- Kd (HLA-A*30:02; [7]): 365 nM

Sequence: IDNNTFVRL
- IC50 (HLA-A*24:02 [5]; [14]): 67.9 µM
- IC50 (HLA-A*02:01; [14]): ≥ 149 µM

Sequence: LENLMWKQI
- Kd (HLA-B*44:02): 22.2 nM

Sequence: KQRLTNLEK
- Kd (HLA-A*30:01; [8]): 0.951 nM

Sequence: ETENILTVLL
- Kd (HLA-A*26:01; [9]): 16200 nM
- Kd (HLA-A*01:01 [2]; [9]): 3840 nM

Sequence: TYQNKVVKV
- Kd (HLA-A*23:01; [9]): 6.52 µM

Sequence: KDLISYGGGW
- Kd (HLA-B*44:02): 310 nM

Sequence: AFFLYDRLA
- IC50 (HLA-A*24:02 [5]; [14]): ≥ 151 µM
- IC50 (HLA-A*02:01; [14]): 35.8 µM

Sequence: AFWETKKNL
- IC50 (HLA-A*24:02 [5]; [15]): 2.48 µM
- IC50 (HLA-A*02:01; [15]): ≥ 242 µM

Sequence: LAASVFFTF
- Kd (HLA-B*57:01): 2140 nM
- Kd (HLA-B*58:01): 203 nM

Sequence: WFFDLPLPWT
- Kd (HLA-A*30:01; [9]): 16300 nM

Sequence: KVKWLQNSV
- Kd (HLA-A*30:01; source organism: Vaccinia virus Copenhagen): 0.497 nM

Sequence: NSRHNAQHK
- Kd (HLA-A*01:01 [6]): ≥ 20 µM
